In publication PMC9729238 (Communications Biology, 2022):

B1: Weak toxin from Naja kaouthia venom (WTX), recombinant analog (natural protein)
chain: MLTCLNCPEMFCGKFQICRNGEKICFKKLHQRRPLSWRYIRGCADTCPVGKPYEMIECCSTDKCNR
modifications: disulfide (positions not given here); also: five disulfide bonds, pairing not given here

What was measured:
[1] = molecular target: Chimera of the α7-nAChR extracellular domain with acetylcholine-binding protein (α7-ECD) (human α7-nAChR / Lymnaea stagnalis AChBP chimera); assay: cryo-EM structure
[2] = molecular target: T1, Nicotinic acetylcholine receptor of α7 type (α7-nAChR) expressed in HEK293 cells (UniProt P36544 23-502); assay: flow cytometry on cells; conditions: one partner purified
T1 construct: also called full-length α7 receptor; α7 receptor

Molecule	stoichiometry N [1]	IC50 [2] [µM]
Chimera of the α7-nAChR extracellular domain with acetylcholine-binding protein (α7-ECD) (domain or fragment)	5	–
B1	–	26 ± 4
